According to US20210324028A1 (Pfizer, published 2021):
Numbering of substitutions follows the chain as printed. Names and notes keep the numbering of the source. Like-named read-outs stand apart in the source and are kept apart here.

T1: human IL-2Rβ (human, UniProt P14784 27-240, limits assumed)
T1 construct: also called hIL-2Rβ; IL-2 receptor beta
T1 sequence (looked up): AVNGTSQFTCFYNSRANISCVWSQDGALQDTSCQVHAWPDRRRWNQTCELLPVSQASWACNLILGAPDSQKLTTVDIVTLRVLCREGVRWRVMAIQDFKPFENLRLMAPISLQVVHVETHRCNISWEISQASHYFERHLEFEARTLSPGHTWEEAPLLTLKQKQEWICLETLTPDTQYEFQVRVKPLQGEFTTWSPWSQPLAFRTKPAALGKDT

T2: mouse PD-1 on doxycycline-induced 32D[pRF770+pRF791] cells (mouse, UniProt Q02242 25-288)
T2 sequence (looked up): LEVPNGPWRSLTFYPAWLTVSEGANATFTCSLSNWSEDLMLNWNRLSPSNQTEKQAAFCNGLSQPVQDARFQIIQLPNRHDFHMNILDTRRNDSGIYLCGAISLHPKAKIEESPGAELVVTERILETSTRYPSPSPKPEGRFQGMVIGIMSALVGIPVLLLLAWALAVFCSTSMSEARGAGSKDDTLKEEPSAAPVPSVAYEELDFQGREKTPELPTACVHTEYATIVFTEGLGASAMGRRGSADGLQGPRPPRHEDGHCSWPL

T3: IL-15 signaling receptor on 32D[pRF770+pRF791] cells (human CD122 plus mouse CD132) (human; mouse, UniProt P14784 27-551; P34902 23-369)
T3 sequence (looked up) 1: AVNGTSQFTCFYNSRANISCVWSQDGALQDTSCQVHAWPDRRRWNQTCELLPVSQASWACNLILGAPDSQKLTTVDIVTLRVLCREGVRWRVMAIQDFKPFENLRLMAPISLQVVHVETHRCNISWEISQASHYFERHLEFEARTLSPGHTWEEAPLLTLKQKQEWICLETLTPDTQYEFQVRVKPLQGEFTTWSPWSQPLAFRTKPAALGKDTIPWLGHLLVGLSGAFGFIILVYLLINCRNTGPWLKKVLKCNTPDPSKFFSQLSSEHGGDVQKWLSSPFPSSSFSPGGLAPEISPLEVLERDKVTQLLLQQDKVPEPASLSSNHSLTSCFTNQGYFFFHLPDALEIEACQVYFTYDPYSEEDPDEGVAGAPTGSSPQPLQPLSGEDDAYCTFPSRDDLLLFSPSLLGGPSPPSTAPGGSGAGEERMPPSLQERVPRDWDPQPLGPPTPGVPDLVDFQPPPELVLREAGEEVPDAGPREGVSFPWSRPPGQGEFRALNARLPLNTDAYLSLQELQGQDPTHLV
T3 sequence (looked up) 2: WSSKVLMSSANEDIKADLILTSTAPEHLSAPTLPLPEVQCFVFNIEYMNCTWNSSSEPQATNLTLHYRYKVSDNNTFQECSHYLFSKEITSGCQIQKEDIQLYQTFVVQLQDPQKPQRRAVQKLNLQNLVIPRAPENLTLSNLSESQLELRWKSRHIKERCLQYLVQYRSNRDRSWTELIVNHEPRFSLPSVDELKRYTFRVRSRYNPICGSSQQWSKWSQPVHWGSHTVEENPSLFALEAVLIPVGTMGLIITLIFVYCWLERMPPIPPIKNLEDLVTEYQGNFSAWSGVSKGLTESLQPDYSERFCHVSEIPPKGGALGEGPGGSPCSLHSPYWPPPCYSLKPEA

B1: xmPD-1-hIL15 NQ-3d (other)
heavy 1: HHHHHHHHGGGGSGSGGEVQLVESGGGLVKPGGSLELSCAASGFTFSSYWMSWVRQAPEKGLEWVAAISPSGGSTYYADSVKGRFTISRDNAKNTLFLQMTSLRSEDTAMYYCAKESWGAYYDLWGQGTTVTVSSASTKGPSVFPLAPCSRSTSESTAALGCLVKDYFPEPVTVSWNSGALTSGVHTFPAVLQSSGLYSLSSVVTVPSSNFGTQTYTCNVDHKPSNTKVDKTVERKCRVRCPRCPAPPVAGPSVFLFPPKPKDTLMISRTPEVTCVVVAVSHEDPEVQFNWYVDGVEVHNAKTKPREEQFNSTFRVVSVLTVVHQDWLNGKEYKCKVSNKGLPSSIEKTISKTKGQPREPQVYTLPPSREEMTKNQVSLTCLVKGFYPSDIAVEWESNGQPENNYKTTPPMLDSDGSFFLYSRLTVDKSRWQQGNVFSCSVMHEALHNHYTQKSLSLSPGK
heavy 2: EVQLVESGGGLVKPGGSLELSCAASGFTFSSYWMSWVRQAPEKGLEWVAAISPSGGSTYYADSVKGRFTISRDNAKNTLFLQMTSLRSEDTAMYYCAKESWGAYYDLWGQGTTVTVSSASTKGPSVFPLAPCSRSTSESTAALGCLVKDYFPEPVTVSWNSGALTSGVHTFPAVLQSSGLYSLSSVVTVPSSNFGTQTYTCNVDHKPSNTKVDKTVERKCEVECPECPAPPVAGPSVFLFPPKPKDTLMISRTPEVTCVVVAVSHEDPEVQFNWYVDGVEVHNAKTKPREEQFNSTFRVVSVLTVVHQDWLNGKEYKCKVSNKGLPSSIEKTISKTKGQPREPQVYTLPPSREEMTKNQVSLTCEVKGFYPSDIAVEWESNGQPENNYKTTPPMLDSDGSFFLYSKLTVDKSRWQQGNVFSCSVMHEALHNHYTQKSLSLSPGSGGGGGTSATATPGANWVNVISDLKKIEDLIQSMHIDATLYTESDVHPSCKVTAMKCFLLQLQVISLQSGDASIHDTVENLIILANNSLSSNGNVTESGCKECEELEQKNIKEFLQSFVHIVQMFINT
light: DIVMTQSPSSLSVSAGDKVTMSCRASQGISSWLAWYQQKPWQPPKLLIYKASTLESGVPDRFTGSGSGTDFTLTISSVQAEDLAVYYCQQSYSTPWTFGGGTKLEIKGTVAAPSVFIFPPSDEQLKSGTASVVCLLNNFYPREAKVQWKVDNALQSGNSQESVTEQDSKDSTYSLSSTLTLSKADYEKHKVYACEVTHQGLSSPVTKSFNRGEC
notes: also called xmPD-1-IL15 NQ-3d; xmPD-IL15 NQ3d
B2: xmPD-1-hIL15 V49R/E46G/E64Q/D30N (other)
heavy 1: B1 heavy 1
heavy 2: B1 heavy 2 with D488N, Q504G, V507R, Q511E, E522Q, Q551E
light: B1 light
notes: not restated for this mutant; also called xmPD-IL15 V49R/E46G/E64Q/D30N
B3: xmPD-1-IL15 m1 (other)
heavy 1: EVQLVESGGGLVKPGGSLELSCAASGFTFSSYWMSWVRQAPEKGLEWVAAISPSGGSTYYADSVKGRFTISRDNAKNTLFLQMTSLRSEDTAMYYCAKESWGAYYDLWGQGTTVTVSSASTKGPSVFPLAPSSKSTSGGTAALGCLVKDYFPEPVTVSWNSGALTSGVHTFPAVLQSSGLYSLSSVVTVPSSSLGTQTYICNVNHKPSNTKVDKKVEPKSCDKTHTCPPCPAPEAAGAPSVFLFPPKPKDTLMISRTPEVTCVVVDVSHEDPEVKFNWYVDGVEVHNAKTKPREEQYNSTYRVVSVLTVLHQDWLNGKEYKCKVSNKALPAPIEKTISKAKGQPREPQVYTLPPCREEMTKNQVSLSCAVKGFYPSDIAVEWESNGQPENNYKTTPPVLDSDGSFFLVSKLTVDKSRWQQGNVFSCSVMHEALHNHYTQKSLSLSPGSGGGGSGGGGSGGGGAWVNVISDLKKIEDLIQSMHIDATLYTESNVHPSCKVTAMKCFLLGLQRISLESGDASIHDTVENLIILANNSLSSNGNVTESGCKECEELEEKNIKEFLQSFVHIVQMFINTS
heavy 2: EVQLVESGGGLVKPGGSLELSCAASGFTFSSYWMSWVRQAPEKGLEWVAAISPSGGSTYYADSVKGRFTISRDNAKNTLFLQMTSLRSEDTAMYYCAKESWGAYYDLWGQGTTVTVSSASTKGPSVFPLAPSSKSTSGGTAALGCLVKDYFPEPVTVSWNSGALTSGVHTFPAVLQSSGLYSLSSVVTVPSSSLGTQTYICNVNHKPSNTKVDKKVEPKSCDKTHTCPPCPAPEAAGAPSVFLFPPKPKDTLMISRTPEVTCVVVDVSHEDPEVKFNWYVDGVEVHNAKTKPREEQYNSTYRVVSVLTVLHQDWLNGKEYKCKVSNKALPAPIEKTISKAKGQPREPQVCTLPPSREEMTKNQVSLWCLVKGFYPSDIAVEWESNGQPENNYKTTPPVLDSDGSFFLYSKLTVDKSRWQQGNVFSCSVMHEALHNHYTQKSLSLSPGK
light: B1 light
notes: also called xmPD-1-hIL15 V49R/E46G/N1A/D30N
B4: xmPD-1-IL15 m2 (other)
heavy 1: B3 heavy 1 with A463G, E526Q
heavy 2: B3 heavy 2
light: B1 light
notes: also called xmPD-1-hIL15 V49R/E46G/N1G/E64Q/D30N

Columns and labels:
human IL-2Rβ [1] = molecular target: T1, human IL-2Rβ; experiment: SPR, steady state, fusion captured
Method: (§1) Anti-human Fc sensor chips were prepared at 25° C. with a running buffer of 10 mM HEPES, 150 mM NaCl, 0.05% (v/v) Tween-20, pH 7.4. All surfaces of a Biacore CM4 sensor chip were activated with a 1:1 (v/v) mixture of 400 mM EDC and 100 mM NHS for 7 minutes, at a flow rate of 10 μL/min. An anti-human Fc reagent (Goat anti-human IgG Fc-γ specific, SouthernBiotech, Birmingham, Ala., Catalog #2014-01) was diluted to 50 μg/mL in 10 mM sodium acetate (pH 4.5) and injected on all flow cells for 7 minutes at 20 μL/min. All flow cells were blocked with 100 mM ethylenediamine in 200 mM Borate buffer pH 8.5 for 7 minutes at 10 μL/min.
(§2) All protein interaction experiments were performed at 37° C. using a running buffer of 10 mM HEPES, 150 mM NaCl, 0.05% (v/v) Tween-20, pH 7.4, 1 mg/mL BSA. Anti-PD-1-hIL-15 fusion proteins were captured at 10 μg/mL at a flow rate of 10 μL/min for 2 minutes. Different fusion proteins were captured in flow cells 2, 3 and 4. No protein was captured onto flow cell 1 which was used as a reference surface. […] After each analyte injection, dissociation was monitored for 5 minutes followed by regeneration of all flow cells with three 60-second injections of 75 mM phosphoric acid. […] For kinetic analysis, the double-referenced sensorgrams were fit globally to a simple 1:1 Langmuir with mass transport binding model using Biacore T200 Evaluation Software version 2.0. For steady-state affinity analysis, the double-referenced equilibrium binding responses were fit with a 1:1 Langmuir steady-state model using Biacore T200 Evaluation Software version 2.0.

[2] = molecular target: T2, mouse PD-1 on doxycycline-induced …; experiment: cell-based or functional assay
[3] = molecular target: T3, IL-15 signaling receptor on …; experiment: cell-based or functional assay
human IL-15Rα = molecular target: T4, human IL-15Rα (human, UniProt Q13261 31-205, limits assumed); experiment: SPR 37C, fusion captured by anti-human Fc
T4 construct: also called hIL-15Rα; IL-15 receptor alpha
Procedure, shortened: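 Anti-PD-1–hIL-15 fusions captured at 10 μg/mL on an anti-human Fc surface, receptor injected at 37 °C in HEPES-buffered saline with 0.05% Tween-20 and 1 mg/mL BSA, pH 7.4; 5 min dissociation.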

human IL-2Rβ [4] = molecular target: T1, human IL-2Rβ; experiment: SPR, fusion captured
Method: as §1, §2

[5] = molecular target: T2, mouse PD-1 on doxycycline-induced …; experiment: cell-based or functional assay; remark: listed apart in the source
[6] = molecular target: T3, IL-15 signaling receptor on …; experiment: cell-based or functional assay; remark: listed apart in the source

T4 sequence (Q13261 31-205 limits assumed): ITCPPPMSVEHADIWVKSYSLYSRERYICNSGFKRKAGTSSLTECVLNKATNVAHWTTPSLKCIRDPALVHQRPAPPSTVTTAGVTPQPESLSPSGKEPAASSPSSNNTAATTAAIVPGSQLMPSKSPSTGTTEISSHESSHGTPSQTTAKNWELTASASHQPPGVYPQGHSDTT

Binder	Kd (human IL-2Rβ [1])	Fold change = EC50 (PD-1(low))/EC50 (PD-1+) [2]	pSTAT5 EC50 on PD-1+ 32D reporter cells [2]	pSTAT5 EC50 on PD-1(low) 32D reporter cells [3]	binding result (human IL-15Rα)	Kd (human IL-2Rβ [4])	Fold change = EC50 (PD-1(low))/EC50 (PD-1+) [5]	pSTAT5 EC50 on PD-1+ 32D reporter cells [5]	pSTAT5 EC50 on PD-1(low) 32D reporter cells [6]
B1	446 nM	163 fold	0.0229 nM	3.73 nM	no binding (tested: 3000 nM)	–	–	–	–
B2	–	715 fold	0.137 nM	98 nM	no binding (tested: 3000 nM)	> 3000 nM	–	–	–
B3	433 nM	–	–	–	no binding (tested: 3000 nM)	–	1450 fold	0.0531 nM	76.9 nM
B4	–	–	–	–	no binding (tested: 3000 nM)	> 1500 nM	2370 fold	0.31 nM	734 nM
